Data published in patent publication CN116930475A.

Columns and labels:
[1] = target: 2339-CAR (CD8信号肽-2339(anti-MSLN)-CD8hinge-CD28TM-CD28IC-CD3z), expressed on T cells of MSLN_CAR-T products (batch BZDS202101001 for patient S0106; same sequence for S0304); test: flow cytometry, PE-mesothelin staining of CAR-T product (table for S0304), no serum
[2] = target: 2339-CAR (CD8信号肽-2339(anti-MSLN)-CD8hinge-CD28TM-CD28IC-CD3z), expressed on T cells of MSLN_CAR-T products (batch BZDS202101001 for patient S0106; same sequence for S0304); test: flow cytometry, PE-mesothelin staining of S0106 CAR-T product, no serum
[3] = target: 1444-CAR (CD8信号肽-(anti-MSLN)-CD8 hinge-CD28 TM-CD28IC-CD3z), expressed on the T cells of patient S0105's MSLN_CAR-T product, batch BZDS202012001; test: flow cytometry, PE-mesothelin staining of S0105 CAR-T product, no serum
Chain of 1444-CAR (CD8信号肽-(anti-MSLN)-CD8 hinge-CD28 TM-CD28IC-CD3z), expressed on the T cells of patient S0105's MSLN_CAR-T product, batch BZDS202012001 (chain, as listed by the source): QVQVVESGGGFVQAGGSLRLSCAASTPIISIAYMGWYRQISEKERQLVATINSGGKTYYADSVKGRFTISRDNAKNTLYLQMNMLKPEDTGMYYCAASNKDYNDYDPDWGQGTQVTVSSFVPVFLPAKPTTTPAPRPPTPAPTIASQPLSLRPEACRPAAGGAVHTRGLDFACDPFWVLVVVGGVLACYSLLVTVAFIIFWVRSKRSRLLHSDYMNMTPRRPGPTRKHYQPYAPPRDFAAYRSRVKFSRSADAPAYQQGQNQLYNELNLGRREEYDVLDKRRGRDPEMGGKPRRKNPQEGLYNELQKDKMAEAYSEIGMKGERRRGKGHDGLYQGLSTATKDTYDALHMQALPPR

Chain of 2339-CAR (CD8信号肽-2339(anti-MSLN)-CD8hinge-CD28TM-CD28IC-CD3z), expressed on T cells of MSLN_CAR-T products (batch BZDS202101001 for patient S0106; same sequence for S0304) (chain, as listed by the source limits assumed): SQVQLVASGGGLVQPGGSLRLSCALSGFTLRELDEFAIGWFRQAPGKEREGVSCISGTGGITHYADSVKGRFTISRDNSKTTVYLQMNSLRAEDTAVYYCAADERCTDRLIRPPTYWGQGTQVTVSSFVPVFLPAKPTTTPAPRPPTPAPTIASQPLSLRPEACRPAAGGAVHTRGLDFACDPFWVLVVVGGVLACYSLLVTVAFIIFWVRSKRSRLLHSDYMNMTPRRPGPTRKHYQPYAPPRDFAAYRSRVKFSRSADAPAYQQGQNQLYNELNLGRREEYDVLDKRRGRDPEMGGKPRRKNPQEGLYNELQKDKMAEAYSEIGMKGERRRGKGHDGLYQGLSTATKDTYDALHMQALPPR

PE荧光标记的间皮素 (PE-labelled mesothelin, MSLN) (from UniProt Q13421 296-580) (ligand)
阳性率 (percent of T cells stained by labelled mesothelin) [1]: 96.8%
阳性率 (percent of T cells stained by labelled mesothelin) [2]: 96.8%
阳性率 (percent of T cells stained by labelled mesothelin) [3]: 32.7%
